Source: patent publication US9176064B2, “Bisubstrate fluorescent probes for protein kinase CK2” (University of Tartu, priority 2012, dated 2015)
Where a SMILES comes first, the peptide text is derived from it. [ ]: non-standard residue; d: D form. The star is where a group is joined. X1 = O=C(CCCCCCCn1cnc2c(Br)c(Br)c(Br)c(Br)c21)*

Tests used:
Test in all cases: Kinase panel residual activity
Format in all cases: biochemical
Conditions in all cases: compound at 1 micromolar
[1] = molecular target: T1, TTK (Homo sapiens, UniProt P33981)
T1 sequence (P33981 1-857): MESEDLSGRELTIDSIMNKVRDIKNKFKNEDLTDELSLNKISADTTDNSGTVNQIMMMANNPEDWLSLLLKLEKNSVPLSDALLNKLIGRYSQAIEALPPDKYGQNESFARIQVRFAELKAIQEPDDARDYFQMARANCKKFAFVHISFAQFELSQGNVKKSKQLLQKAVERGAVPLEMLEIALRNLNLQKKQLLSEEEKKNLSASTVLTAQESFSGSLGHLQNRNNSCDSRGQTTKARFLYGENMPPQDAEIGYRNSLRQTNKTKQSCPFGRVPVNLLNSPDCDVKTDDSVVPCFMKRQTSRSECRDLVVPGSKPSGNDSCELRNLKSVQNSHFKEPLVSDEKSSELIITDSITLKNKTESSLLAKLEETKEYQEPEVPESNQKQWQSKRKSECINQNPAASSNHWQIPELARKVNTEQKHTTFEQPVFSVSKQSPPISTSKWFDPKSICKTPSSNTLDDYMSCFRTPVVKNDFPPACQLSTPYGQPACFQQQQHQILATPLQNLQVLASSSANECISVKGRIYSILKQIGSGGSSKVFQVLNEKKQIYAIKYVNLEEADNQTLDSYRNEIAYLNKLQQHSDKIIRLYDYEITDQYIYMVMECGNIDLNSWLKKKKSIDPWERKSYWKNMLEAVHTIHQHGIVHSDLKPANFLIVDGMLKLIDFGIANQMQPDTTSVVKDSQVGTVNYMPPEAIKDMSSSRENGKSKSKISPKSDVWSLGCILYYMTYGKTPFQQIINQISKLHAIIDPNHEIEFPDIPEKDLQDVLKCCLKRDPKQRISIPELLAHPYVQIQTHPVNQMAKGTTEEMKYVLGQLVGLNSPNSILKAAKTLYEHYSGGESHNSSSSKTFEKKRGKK

[2] = molecular target: T2, EIF2AK3 (Homo sapiens, UniProt Q9NZJ5)
T2 sequence (Q9NZJ5 30-1116): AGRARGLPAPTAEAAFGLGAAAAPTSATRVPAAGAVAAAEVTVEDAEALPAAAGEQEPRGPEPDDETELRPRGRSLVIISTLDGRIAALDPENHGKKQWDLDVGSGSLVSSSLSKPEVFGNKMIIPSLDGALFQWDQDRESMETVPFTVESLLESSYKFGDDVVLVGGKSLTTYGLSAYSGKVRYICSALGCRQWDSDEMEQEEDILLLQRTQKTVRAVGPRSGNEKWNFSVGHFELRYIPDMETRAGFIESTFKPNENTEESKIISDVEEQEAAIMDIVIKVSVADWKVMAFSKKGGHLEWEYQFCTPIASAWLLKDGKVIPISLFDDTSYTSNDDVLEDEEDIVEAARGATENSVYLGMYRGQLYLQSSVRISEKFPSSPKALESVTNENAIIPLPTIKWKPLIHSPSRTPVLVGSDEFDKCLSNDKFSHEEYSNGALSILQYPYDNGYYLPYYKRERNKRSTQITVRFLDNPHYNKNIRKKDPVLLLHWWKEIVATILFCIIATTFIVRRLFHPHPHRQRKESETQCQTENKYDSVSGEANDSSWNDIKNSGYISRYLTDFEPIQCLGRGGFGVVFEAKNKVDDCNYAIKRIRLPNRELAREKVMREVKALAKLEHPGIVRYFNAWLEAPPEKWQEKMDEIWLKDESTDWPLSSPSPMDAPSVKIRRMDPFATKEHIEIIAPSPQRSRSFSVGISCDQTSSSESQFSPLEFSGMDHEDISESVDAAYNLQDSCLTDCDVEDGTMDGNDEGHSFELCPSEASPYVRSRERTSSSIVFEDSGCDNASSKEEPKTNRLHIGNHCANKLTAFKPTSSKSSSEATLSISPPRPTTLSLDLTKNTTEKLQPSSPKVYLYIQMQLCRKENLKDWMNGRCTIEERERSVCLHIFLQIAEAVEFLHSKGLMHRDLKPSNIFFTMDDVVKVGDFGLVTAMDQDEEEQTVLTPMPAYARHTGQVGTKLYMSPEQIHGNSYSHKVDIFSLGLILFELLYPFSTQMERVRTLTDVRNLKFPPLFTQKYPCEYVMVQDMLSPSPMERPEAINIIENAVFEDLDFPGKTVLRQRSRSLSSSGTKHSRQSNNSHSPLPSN

[3] = molecular target: SYK (Homo sapiens, UniProt P43405)
[4] = molecular target: T3, ULK2 (Homo sapiens, UniProt Q8IYT8)
T3 sequence (Q8IYT8 1-1036): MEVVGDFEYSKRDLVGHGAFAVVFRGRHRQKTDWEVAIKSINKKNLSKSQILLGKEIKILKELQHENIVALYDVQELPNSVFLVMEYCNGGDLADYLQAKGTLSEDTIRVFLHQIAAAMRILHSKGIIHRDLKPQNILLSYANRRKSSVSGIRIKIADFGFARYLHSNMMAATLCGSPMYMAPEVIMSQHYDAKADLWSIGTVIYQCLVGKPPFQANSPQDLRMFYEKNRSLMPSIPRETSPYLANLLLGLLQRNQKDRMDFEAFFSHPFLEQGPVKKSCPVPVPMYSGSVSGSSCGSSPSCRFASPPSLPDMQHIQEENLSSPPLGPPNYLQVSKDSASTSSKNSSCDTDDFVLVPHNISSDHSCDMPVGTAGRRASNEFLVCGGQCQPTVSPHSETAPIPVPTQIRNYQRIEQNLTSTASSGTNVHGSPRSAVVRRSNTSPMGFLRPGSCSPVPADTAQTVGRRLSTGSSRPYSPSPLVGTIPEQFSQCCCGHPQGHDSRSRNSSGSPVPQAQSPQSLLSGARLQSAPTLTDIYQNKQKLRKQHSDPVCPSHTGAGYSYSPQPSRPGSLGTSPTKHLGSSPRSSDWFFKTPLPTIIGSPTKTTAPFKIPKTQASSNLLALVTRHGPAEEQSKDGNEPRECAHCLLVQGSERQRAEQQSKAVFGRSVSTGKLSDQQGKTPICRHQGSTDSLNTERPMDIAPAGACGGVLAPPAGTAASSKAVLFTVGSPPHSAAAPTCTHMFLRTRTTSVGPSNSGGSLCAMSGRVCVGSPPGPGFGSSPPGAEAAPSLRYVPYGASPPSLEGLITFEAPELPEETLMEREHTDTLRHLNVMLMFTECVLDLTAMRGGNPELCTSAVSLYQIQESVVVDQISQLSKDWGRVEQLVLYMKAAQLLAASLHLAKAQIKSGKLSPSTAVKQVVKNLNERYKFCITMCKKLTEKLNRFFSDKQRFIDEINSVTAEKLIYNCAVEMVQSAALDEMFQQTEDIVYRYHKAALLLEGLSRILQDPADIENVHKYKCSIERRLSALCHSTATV

## NCCCC[C@H](NC(=O)[C@H](CC(=O)O)NC(=O)[C@H](CC(=O)O)NC(=O)[C@H](CC(=O)O)NC(=O)[C@H](CC(=O)O)NC(=O)[C@H](CC(=O)O)NC(=O)[C@@H](CC(=O)O)NC(=O)CCCCCCCn1cnc2c(Br)c(Br)c(Br)c(Br)c21)C(=O)O [TBBI-OcA-(D-Asp)-(L-Asp)5-(L-Lys)-OH] (X1-[dD]DDDDDK-OH)
[1]
  remaining activity at 1 µM: 52%
[2]
  remaining activity at 1 µM: 71%
[3]
  remaining activity at 1 µM: 100%
[4]
  remaining activity at 1 µM: 110%
